Measurements taken from IntAct's records for PubMed 20078863.

Legend:
Thra, P63059-2 [1] = biological target: Thra, P63059-2
Thra, P63059-2 [2] = biological target: Thra, P63059-2; remark: listed apart in the source

Chain of Transforming acidic coiled-coil-containing protein 1 (Homo sapiens), O75410-9 L580A;I581A (O75410 other isoform, or with tags, fused parts or gaps L580A;I581A): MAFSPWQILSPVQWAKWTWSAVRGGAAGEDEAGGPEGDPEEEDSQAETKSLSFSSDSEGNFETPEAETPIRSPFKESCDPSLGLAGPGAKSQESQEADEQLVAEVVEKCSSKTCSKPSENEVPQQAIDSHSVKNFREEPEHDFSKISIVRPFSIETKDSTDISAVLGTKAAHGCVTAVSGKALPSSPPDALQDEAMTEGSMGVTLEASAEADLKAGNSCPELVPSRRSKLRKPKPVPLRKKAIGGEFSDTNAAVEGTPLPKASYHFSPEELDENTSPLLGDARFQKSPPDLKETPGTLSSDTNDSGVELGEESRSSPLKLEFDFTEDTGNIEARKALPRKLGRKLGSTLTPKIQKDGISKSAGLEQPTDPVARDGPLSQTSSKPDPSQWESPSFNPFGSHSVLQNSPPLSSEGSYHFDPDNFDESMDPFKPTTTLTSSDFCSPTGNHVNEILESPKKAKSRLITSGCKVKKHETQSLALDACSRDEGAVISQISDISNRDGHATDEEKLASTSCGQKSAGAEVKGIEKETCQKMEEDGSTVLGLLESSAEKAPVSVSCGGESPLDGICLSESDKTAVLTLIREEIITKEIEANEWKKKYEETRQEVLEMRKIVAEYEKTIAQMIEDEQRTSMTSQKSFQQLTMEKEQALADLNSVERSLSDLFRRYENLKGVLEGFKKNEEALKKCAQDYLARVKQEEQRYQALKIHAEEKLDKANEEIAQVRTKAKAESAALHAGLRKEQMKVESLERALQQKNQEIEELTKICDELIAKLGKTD
Chain of Thra, P63059-2 (P63059 other isoform, or with tags, fused parts or gaps): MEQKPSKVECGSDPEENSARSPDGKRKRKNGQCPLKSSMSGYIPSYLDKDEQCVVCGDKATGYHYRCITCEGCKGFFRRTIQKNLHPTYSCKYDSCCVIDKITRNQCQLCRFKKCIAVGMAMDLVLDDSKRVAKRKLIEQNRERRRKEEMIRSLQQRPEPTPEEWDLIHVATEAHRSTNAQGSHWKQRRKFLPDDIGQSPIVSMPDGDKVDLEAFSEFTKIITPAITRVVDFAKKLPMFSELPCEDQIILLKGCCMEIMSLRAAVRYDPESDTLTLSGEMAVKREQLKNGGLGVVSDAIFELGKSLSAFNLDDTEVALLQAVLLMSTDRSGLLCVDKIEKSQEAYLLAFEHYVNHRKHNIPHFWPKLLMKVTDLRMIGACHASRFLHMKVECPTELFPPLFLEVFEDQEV
Chain of Thra, P63059-1 (P63059 whole entry): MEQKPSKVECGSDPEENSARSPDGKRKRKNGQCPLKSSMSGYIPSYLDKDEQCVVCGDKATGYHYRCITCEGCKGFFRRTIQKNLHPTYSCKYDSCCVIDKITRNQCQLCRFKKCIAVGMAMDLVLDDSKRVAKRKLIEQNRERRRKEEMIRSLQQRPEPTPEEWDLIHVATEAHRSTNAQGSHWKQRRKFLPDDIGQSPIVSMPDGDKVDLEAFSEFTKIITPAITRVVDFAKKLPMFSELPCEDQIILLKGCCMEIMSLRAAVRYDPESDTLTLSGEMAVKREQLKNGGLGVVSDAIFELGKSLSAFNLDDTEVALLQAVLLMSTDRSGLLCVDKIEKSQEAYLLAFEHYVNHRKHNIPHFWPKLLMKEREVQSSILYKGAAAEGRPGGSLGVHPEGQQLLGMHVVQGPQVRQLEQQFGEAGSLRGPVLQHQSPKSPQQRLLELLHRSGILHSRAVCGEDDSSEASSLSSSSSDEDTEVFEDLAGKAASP
Chain of Transforming acidic coiled-coil-containing protein 1 (Homo sapiens), O75410-10 L170A;I171A (O75410 other isoform, or with tags, fused parts or gaps L170A;I171A): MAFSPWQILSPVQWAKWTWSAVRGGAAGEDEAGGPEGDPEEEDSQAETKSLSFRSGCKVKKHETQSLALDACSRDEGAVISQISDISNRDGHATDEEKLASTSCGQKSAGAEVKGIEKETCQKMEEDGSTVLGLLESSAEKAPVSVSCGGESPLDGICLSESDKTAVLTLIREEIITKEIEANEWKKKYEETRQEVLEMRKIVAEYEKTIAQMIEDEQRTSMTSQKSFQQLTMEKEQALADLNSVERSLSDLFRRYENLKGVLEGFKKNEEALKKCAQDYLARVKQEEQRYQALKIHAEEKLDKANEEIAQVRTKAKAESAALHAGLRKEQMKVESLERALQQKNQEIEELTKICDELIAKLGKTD

effect of a mutation on the interaction (Thra, P63059-2 [1])	effect of a mutation on the interaction (Thra, P63059-1)	effect of a mutation on the interaction (Thra, P63059-2 [2])	Substance
decreasing interaction strength	disrupting interaction strength	–	Transforming acidic coiled-coil-containing protein 1 (Homo sapiens), O75410-9 L580A;I581A
–	–	disrupting interaction strength	Transforming acidic coiled-coil-containing protein 1 (Homo sapiens), O75410-10 L170A;I171A
